{
  "source": "ChEMBL document CHEMBL2074060",
  "about": "“MDR1 P-glycoprotein transports endogenous opioid peptides” (Peptides, 2001)",
  "test_system": "C[C@@H](NC(=O)[C@@H](N)Cc1ccc(O)cc1)C(=O)NCC(=O)N(C)[C@@H](Cc1ccccc1)C(=O)NCCO",
  "assay": "TP_TRANSPORTER: uptake in membrane vesicle from MDR1-expressing SW1573/S1 cell",
  "assay_type": "functional, cell membranes",
  "data": [
    {"substance": "ATP-dependent translocase ABCB1 (Homo sapiens)", "values": [
      {"measurement": "Km", "value": 43, "unit": "µM"}
    ]}
  ]
}
